Reference: patent US20230029835A1 (KEYMED BIOSCIENCES, published 2023)
Changes are numbered by the printed parent chain.

T1: Cynomolgus macaques TSLP recombinant protein (Cynomolgus macaques, UniProt Q969D9 29-159 (human entry), limits assumed, biotinylated in the blocking assays (sites not given))
T1 construct: also called cyTSLP; biotinylated Cynomolgus macaques TSLP protein
T1 chain: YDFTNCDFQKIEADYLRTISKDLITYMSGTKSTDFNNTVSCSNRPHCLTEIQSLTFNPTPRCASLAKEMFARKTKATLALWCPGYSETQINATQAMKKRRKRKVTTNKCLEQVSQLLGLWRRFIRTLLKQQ

B1: Ab20 (antibody, V domains shown)
VH: QVQLVQSGAEVKKPGSSVKVSCKASGYTFTDYWMHWVRQAPGQGLEWMGTIDNSDSDTTYNQKFQGRVTLTVDTSTSTAYMELSSLRSEDTAVYYCARSVDGYLDYWGQGTLVTVSS
VL: DIQMTQSPSSLSASVGDRVTITCRTSENIYSYLAWYQQKPGKAPKLLIYFAKTLTDGVPSRFSGSGSGTDFTLTISSLQPEDFATYYCQHHYGTPWTFGQGTKVEIK
notes: Humanized; also called h71G4VHv2/h71G4VKv1
B2: Ab21 (antibody, V domains shown)
VH: B1 VH with L70M, V72R, A79V
VL: B1 VL
notes: Humanized; also called h71G4VHv3/h71G4VKv1
B3: Ab23 (antibody, V domains shown)
VH: QVQLVQSGAEVKKPGSSVKVSCKASGYSFISYWIHWVRQAPGQGLEWMGIIDPSDSDTSLNQKFQGRVTITADESTSTAYMELSSLRSEDTAVYYCARSLDGYYDYWGQGTLVTVSS
VL: B1 VL
notes: Humanized; also called h39G5VHv2/h71G4VKv1; h39G5VHv2/h71G4VKv1 hIgG1
B4: Ab22 (antibody, V domains shown)
VH: B3 VH with I70L, A72V, E74K, T76S, S77T
VL: B1 VL
notes: Humanized; also called h39G5VHv1/h71G4VKv1; h39G5VHv1/h7IG4VKv1 hIgG1
B5: Ab24 (antibody, V domains shown)
VH: B1 VH with T50I, N53P, T59S, Y60L, V100L, L104Y
VL: B1 VL
notes: Humanized; also called h39G5VHv5/h71G4VKv1; h39G5VHv5/h71G4VKv1 hIgG1
B6: Ab26 (antibody, V domains shown)
VH: B3 VH with S28T, I30T, S31D, I34M, E74T
VL: B1 VL
notes: Humanized; also called h39G5VHv10/h71G4VKv1; h39G5VHv10/h71G4VKv1 hIgG1
B7: Murine anti-39G5 (mAb39G5) (antibody, V domains shown)
VH: QVQLLQSGPQLVRPGASVKISCKASGYSFISYWIHWVKQRPGQGLEWIGIIDPSDSDTSLNQKFKDKATLTVDKSSTTAYIQLSSPTSEDSAVYYCARSLDGYYDYWGQGTTLTVSS
VL: DIQMTQSPASLSASVGETVTITCRASENIYSYLAWYQQKQGKSPQLLVYNARTLPEGVPSRFSGSGSGTQFSLKINSLQPEDFGIYYCQHHYTTPWTFGGGTKLEIK
notes: also called murine antibody 39G5
B8: Murine anti-71G4 (mAb71G4) (antibody, V domains shown)
VH: QVQLQQSGAELVMPGASVKMSCKASGYTFTDYWMHWVKQRPGQGLEWIGTIDNSDSDTTYNQKFKGKVTLTVDESSSTAYMQLSSLTSEDSAVYYCARSVDGYLDYWGQGTTLTVSS
VL: B7 VL with D1E, A25T, N50F, R52K, P55T, E56D, F62L, I85S, T93G
notes: also called murine antibody 71G4
B9: Ab19 (antibody, V domains shown)
VH: QVQLVQSGAEVKKPGSSVKVSCKASGYTFTDYWMHWVRQAPGQGLEWMGTIDNSDSDTTYNPSFQGHVTISADKSISTAYLQWSSLKASDTAMYYCARSVDGYLDYWGQGTLVTVSS
VL: B1 VL
notes: Humanized; also called h71G4VHv1/h71G4VKv1
B10: 79D6 chimeric antibody (antibody, V domains shown)
VH: B8 VH with D31G
VL: B7 VL with T5I, K39I, N50Y, R52K, I85S, T93G
B11: 71G4 chimeric antibody (antibody, V domains shown)
VH: B8 VH
VL: B7 VL with D1E, A25T, N50F, R52K, P55T, E56D, F62L, I85S, T93G
B12: 76A8 chimeric antibody (antibody, V domains shown)
VH: QVQLQQSGPQLVRPGASVKISCKASGYSFTSYWMHWVKQRPGQGLEWIGLIDPSDSETGLNQRFKDKATLTVDNPSSTAYMQLSSPTSEDSAVYYCARSLDGYYDYWGQGTTLTVSS
VL: DIQMIQSPASLSASVGETVTITCRASGNIHNYLAWYQQKQGKSPQLLVYNAKTLADGVPSRFSGSGSGTQYSLKINSLQPEDFGSYYCQHFWSTPWTFGGGTRLEIK
B13: 80E11 chimeric antibody (antibody, V domains shown)
VH: B12 VH with L50V, G59I, R63K, N74K, P75S, L83F
VL: B12 VL with I5T, S26G, G27E, H30Y, N31S, D56E, G66A, Y71F, S93G, T97A
B14: 80B12 chimeric antibody (antibody, V domains shown)
VH: B12 VH with S31T, S56G, T58A, R63N, N74I, P75S, S77R, L83I, Y95F
VL: B7 VL with N28D, R52K, P55A, I85S, H91F, Y92W, T93S, I106L

These binders were tested against T2, human TSLP recombinant protein (human, UniProt Q969D9 29-159, biotinylated in the blocking and cell-binding assays (sites not given)) (assay: cell-based or functional assay).

| Binder | Inhibition of Cell Proliferation IC50 |
| --- | --- |
| B1 | 46200 pM |
| B2 | 178000 pM |
| B3 | 1100 pM |
| B4 | 2200 pM |
| B5 | 1040 pM |
| B6 | 1500 pM |
| B7 | 58900 pM |
| B8 | 30700 pM |

Each binder was assayed against T2, human TSLP recombinant protein (assay: ELISA on coated human TSLP).
Description: (§1) The plate was washed three times with PBS and blocked by adding 200 μL/well of PBS containing 2% skim milk for 1 hour. […] After washing with PBST and PBS three times, respectively, 100 μL of TMB substrate was added to each well for color development at 37° C. for 10 minutes, the reaction was terminated with 50 μL of 2M sulfuric acid solution per well, and the absorbance was read at a wavelength of 450 nm.

| Binder | EC50 |
| --- | --- |
| B1 | 170 pM |
| B2 | 280 pM |
| B9 | 270 pM |
| B3 | 240 pM |
| B4 | 290 pM |
| B5 | 220 pM |
| B6 | 180 pM |

Molecular target: T1, Cynomolgus macaques TSLP recombinant …
Test: competition ELISA, biotin-cynomolgus TSLP to coated cynomolgus TSLPR-Fc
Description: Cynomolgus macaques TSLPR recombinant protein was coated onto a 96-well microtiter plate at 1 μg/mL in carbonate buffer overnight at 4° C. The plate was washed three times with PBS and blocked by adding 200 μL/well of PBS containing 2% skim milk for 1 hour. […] The 96-well plate was washed three times with PBS, and 100 μL of the incubated mixture was added to each well and incubated for 1 hour at room temperature. After washing with PBST and PBS three times, respectively, 100 μL of SA-HRP was added to each well and incubated at room temperature for 30 minutes in the dark. After washing with PBST and PBS three times, respectively, 100 μL of TMB substrate was added to well for color development at 37° C. for 10 minutes, the reaction was terminated with 50 μL of 2M sulfuric acid solution per well, and the absorbance was read at a wavelength of 450 nm.

| Binder | IC50 |
| --- | --- |
| B10 | 310 pM |
| B11 | 560 pM |
| B12 | 730 pM |
| B13 | 1150 pM |
| B14 | 540 pM |

What follows are binders tested against T2, human TSLP recombinant protein (assay: competition ELISA, biotin-human TSLP to coated human TSLPR-Fc).
Description: (§2) Human TSLPR recombinant protein was coated onto a 96-well microtiter plate at 1 μg/mL in carbonate buffer overnight at 4° C. The plate was washed three times with PBS and blocked by adding 200 μL/well of PBS containing 2% skim milk for 1 hour. […] The 96-well plate was washed three times with PBS, and 100 μL of the incubated mixture was added to each well and incubated for 1 hour at room temperature. After washing with PBST and PBS three times, respectively, 100 μL of SA-HRP was added to each well and incubated at room temperature for 30 minutes in the dark. After washing with PBST and PBS three times, respectively, 100 μL of TMB substrate was added to well for color development at 37° C. for 10 minutes, the reaction was terminated with 50 μL of 2M sulfuric acid solution per well, and the absorbance was read at a wavelength of 450 nm.

| Binder | IC50 |
| --- | --- |
| B10 | 1350 pM |
| B11 | 1520 pM |
| B12 | 1420 pM |
| B13 | 1800 pM |
| B14 | 2580 pM |

Molecular target: T2, human TSLP recombinant protein
Test: cell-based or functional assay
Remark: another data set of the same source

| Binder | STAT5 signal inhibition IC50 |
| --- | --- |
| B3 | 170 pM |
| B4 | 170 pM |
| B5 | 150 pM |
| B6 | 180 pM |
| B7 | 4920 pM |
| B8 | 1140 pM |

Molecular target: T1, Cynomolgus macaques TSLP recombinant …
Test: competition ELISA, biotin-cynomolgus TSLP to coated cynomolgus TSLPR-Fc
Remark: another data set of the same source
Description: Cynomolgus macaques TSLPR recombinant protein was coated onto a 96-well microtiter plate at 1 g/mL in carbonate buffer overnight at 4° C. The plate was washed three times with PBS and blocked by adding 200 μL/well of PBS containing 2% skim milk for 1 hour. […] The 96-well plate was washed three times with PBS, and 100 μL of the incubated mixture was added to each well and incubated for 1 hour at room temperature. After washing with PBST and PBS three times, respectively, 100 μL of SA-HRP was added to each well and incubated at room temperature for 30 minutes in the dark. After washing with PBST and PBS three times, respectively, 100 μL of TMB substrate was added to well for color development at 37° C. for 10 minutes, the reaction was terminated with 50 μL of 2M sulfuric acid solution per well, and the absorbance was read at a wavelength of 450 nm.

| Binder | IC50 |
| --- | --- |
| B1 | 1320 pM |
| B2 | 1080 pM |
| B9 | 1760 pM |
| B3 | 1540 pM |
| B4 | 1000 pM |
| B5 | 1630 pM |
| B6 | 690 pM |
| B7 | 1600 pM |
| B8 | 470 pM |

Molecular target: T1, Cynomolgus macaques TSLP recombinant …
Test: ELISA on coated cynomolgus TSLP
Description: as §1

| Binder | EC50 |
| --- | --- |
| B1 | 270 pM |
| B2 | 540 pM |
| B9 | 650 pM |
| B3 | 830 pM |
| B4 | 770 pM |
| B5 | 1370 pM |
| B6 | 950 pM |

These binders were tested against T2, human TSLP recombinant protein (assay: flow cytometry competition, biotin-human TSLP to Ba/F3-hTSLPR-IL7Rα cells).
Description: Ba/F3-hTSLPR-IL7Rα cells were washed three times with PBS, centrifuged at 300 g for 3 minutes, and blocked with 3% BSA/PBS for 30 minutes. The cells were resuspended and added to a 96-well U-plate at 5×10⁴/well.

| Binder | IC50 |
| --- | --- |
| B1 | 330 pM |
| B2 | 360 pM |
| B9 | 450 pM |
| B3 | 330 pM |
| B4 | 390 pM |
| B5 | 360 pM |
| B6 | 390 pM |
| B7 | 360 pM |
| B8 | 270 pM |

These binders were tested against T2, human TSLP recombinant protein (assay: SPR BIAcore T200, antibody captured on Protein A, human TSLP injected).
Description: (§3) After each injection cycle, the Protein A chip surface was regenerated with regeneration buffer 10 mM glycine (pH 2.0) at a flow rate of 30 μL/min. The association rate constant (ka) and dissociation rate constant (kd) and equilibrium dissociation constant KD were analyzed by fitting the resulting data to a Langmuir 1:1 kinetics theoretical model using BIAevaluation software.

| Binder | Kd | koff | kon |
| --- | --- | --- | --- |
| B3 | 0.0812 pM | 1.61e-07 s⁻¹ | 1.98e+06 M⁻¹ s⁻¹ |
| B4 | 0.064 pM | 1.07e-07 s⁻¹ | 1.68e+06 M⁻¹ s⁻¹ |
| B5 | 0.0234 pM | 3.99e-08 s⁻¹ | 1.7e+06 M⁻¹ s⁻¹ |
| B6 | 2.03 pM | 2.79e-06 s⁻¹ | 1.37e+06 M⁻¹ s⁻¹ |

Molecular target: T2, human TSLP recombinant protein
Test: ELISA on coated human TSLP
Remark: another data set of the same source
Description: as §1

| Binder | EC50 |
| --- | --- |
| B10 | 580 pM |
| B11 | 320 pM |
| B12 | 260 pM |
| B13 | 150 pM |
| B14 | 340 pM |

Molecular target: T2, human TSLP recombinant protein
Test: SPR BIAcore T200, antibody captured on Protein A, human TSLP injected
Remark: another data set of the same source
Description: After each injection cycle, the Protein A chip surface was regenerated with regeneration buffer 10 mM glycine (pH 2.0) at a flow rate of 30 μL/min.
The association rate constant (ka) and dissociation rate constant (kd) and equilibrium dissociation constant KD were analyzed by fitting the resulting data to a Langmuir 1:1 kinetics theoretical model using BIAevaluation software.

| Binder | Kd | koff | kon |
| --- | --- | --- | --- |
| B10 | 20.4 pM | 8.77e-05 s⁻¹ | 4.31e+06 M⁻¹ s⁻¹ |
| B11 | 10 pM | 3.16e-05 s⁻¹ | 3.15e+06 M⁻¹ s⁻¹ |
| B12 | 26 pM | 8.36e-05 s⁻¹ | 3.22e+06 M⁻¹ s⁻¹ |
| B13 | 18.5 pM | 0.000123 s⁻¹ | 6.62e+06 M⁻¹ s⁻¹ |
| B14 | 22.4 pM | 0.000108 s⁻¹ | 4.82e+06 M⁻¹ s⁻¹ |

Molecular target: T2, human TSLP recombinant protein
Test: cell-based or functional assay
Remark: another data set of the same source

| Binder | Inhibition IC50 of STAT5 reporter gene |
| --- | --- |
| B10 | 9610 pM |
| B11 | 1670 pM |
| B12 | 9780 pM |
| B13 | 13600 pM |
| B14 | 5790 pM |

Molecular target: T2, human TSLP recombinant protein
Test: competition ELISA, biotin-human TSLP to coated human TSLPR-Fc
Remark: another data set of the same source
Description: as §2

| Binder | IC50 |
| --- | --- |
| B1 | 2000 pM |
| B2 | 2180 pM |
| B9 | 2740 pM |
| B3 | 1760 pM |
| B4 | 1800 pM |
| B5 | 2010 pM |
| B6 | 1660 pM |
| B7 | 1950 pM |
| B8 | 1980 pM |

Molecular target: T1, Cynomolgus macaques TSLP recombinant …
Test: SPR BIAcore T200, antibody captured on Protein A, cynomolgus TSLP injected
Description: as §3

| Binder | Kd | koff | kon |
| --- | --- | --- | --- |
| B3 | 0.00708 pM | 1.36e-08 s⁻¹ | 1.93e+06 M⁻¹ s⁻¹ |
| B4 | 0.0421 pM | 6.7e-08 s⁻¹ | 1.59e+06 M⁻¹ s⁻¹ |
| B5 | 0.179 pM | 2.85e-07 s⁻¹ | 1.59e+06 M⁻¹ s⁻¹ |
| B6 | 0.308 pM | 3.82e-07 s⁻¹ | 1.24e+06 M⁻¹ s⁻¹ |

Molecular target: T2, human TSLP recombinant protein
Test: cell-based or functional assay
Remark: another data set of the same source

| Binder | Inhibition IC50 of cell proliferation |
| --- | --- |
| B11 | 12700 pM |

Molecular target: T1, Cynomolgus macaques TSLP recombinant …
Test: ELISA on coated cynomolgus TSLP
Remark: another data set of the same source
Description: as §1

| Binder | EC50 |
| --- | --- |
| B10 | 730 pM |
| B11 | 600 pM |
| B12 | 470 pM |
| B13 | 570 pM |
| B14 | 550 pM |
